Laboratory results published in publication PMC4838342 (Nucleic Acids Research, 2015).

Columns and labels:
[1] = biological target: H3 115–135 peptide; assay: NMR titration; 1H-15N HSQC of 15N-labelled sNASP (41–330, Δ101–159) titrated with H3 115–135 peptide in PBS; 298 K; assignments in 20 mM NaPO4 pH 7.0, 100 mM NaCl, 5 mM β-mercaptoethanol; settings: both partners purified
[2] = biological target: MBP H3 116–135 (human); assay: SEC; analytical gel filtration, Superdex S200 10/300 GL, 20 mM Hepes-KOH pH 7.5, 200 mM sodium chloride; fractions on SDS-PAGE, Coomassie; settings: both partners purified

Chain of H3 115–135 peptide (peptide, as listed by the source): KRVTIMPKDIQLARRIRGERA

Binder | binding result [1] | binding result [2]
sNASP (41–330, Δ101–159) (domain or fragment, 15N (and 13C, 2H) isotope labelled) SEAKKLLGLGQKHLVMGDIPAAVNAFQEAASLLGKKYGETANECGEAFFFYGKSLLELARLENKSLQENEEEEIGNLELAWDMLDLAKIIFKRQETKEAQLYAAQAHLKLGEVSVESENYVQAVEEFQSCLNLQEQYLEAHDRLLAETHYQLGLAYGYNSQYDEAVAQFSKSIEVIENRMAVLNEQVKEAEGSSAEYKKEIEELKELLPEIREKIEDAKESQRSGNVAELA | binds | 
Sim3 (as used in gel filtration) (natural protein, Schizosaccharomyces pombe, UniProt Q9USQ4 1-396, looked up, source: bacteria, purified) MSSDTKTLENSKGNSATDADTKNPSSSDSRAIEQLVTQGNMAYAQKNYEEAVDKYGQALMQSESIHGSESLENRNVLWLYGKSLFQIAIENSQVLGNALGAKESVSQATESFEEPEAIGSFTFSGQKIENKYTVNEENSSIAHPEKESEEKETNEASPASEEDEDDFNVAWEVLDLTRVMQSKAVDAYPDSKDEKIRLADIYDLLGELSLEIENFSQASQDLKTALEWKEKVYNVSNNTLLSEAHYKLALALEFTNPEDPSNKSRACEHVEKAAEILKNVLNERENEVTDKKGKGKQKAEESTLTSDLENLREMLSELEQKTLDLKHGAPSLEEAVMSKMHESSLLSKDSSSLAQAVAEAVKNANDLGGLVKRKRTKQEVTSSSQKEGPKDKKKKD |  | binds
